Source: patent US9744220B2, “Compositions and methods for treating inflammatory diseases” (priority 2013, dated 2017)

What was measured:
TrkB = TrkB (Homo sapiens, UniProt Q16620); conditions: previous finding; cited from earlier work
cardiac fibroblasts = assay: sPDNF stimulation of primary cardiac fibroblasts, chemokine transcripts by qPCR; format: cell-based, mouse; conditions: 3 hr, dose-dependent
Description: FIG. 7A is a graph depicting MCP-1 and FKN expression in cardiomyocytes of mice infected with T cruzi. FIG. 7B is a graph depicting MCP-1 and FKN expression in cardiac fibroblasts of mice infected with T cruzi. T cruzi infection: Primary cultures of mouse cardiomyocytes (FIG. 7A) and cardiac fibroblasts (FIG. 7B) were plated in 6-well plates, infected with T cruzi Tulahuen strain (MOI=10) for 3, 24, and 72 hr, and MCP-1 and FKN transcripts were quantified by qPCR. Chemokine gene expression was normalized to HPRT and fold change calculated relative to uninfected cells. Points represent mean±SD fold change expression of triplicate samples. The experiment was repeated, and similar results were obtained. FIG. 7C is a graph depicting MCP-1 and FKN expression in cardiomyocytes of mice injected with sPDNF. FIG. 7D is a graph depicting MCP-1 and FKN expression in cardiac fibroblasts of mice injected with sPDNF. sPDNF stimulation: Primary cardiomyocytes (FIG. 7C) and cardiac fibroblasts (FIG. 7D) were plated in 6-well plates, serum starved overnight, then stimulated with the indicated concentration of sPDNF (3 hr), and MCP-1 and FKN transcripts were quantified by qPCR. Chemokine gene expression was normalized to HPRT and fold change calculated relative to vehicle-treated cells; *P<0.05, **P<0.01, and ***P<0.005. […]

[1] = tested on: MCP-1 and FKN receptors CCR2 and CX3CR1; assay: IV sPDNF into naïve mice, chemokine receptor transcripts by qPCR; format: in vivo
Description: For the results depicted in FIGS. 12A and 12B, mice (3/group) were injected with various single doses of IV sPDNF, and sacrificed 3 hr post-injection. FIG. 12A is a graph showing the mRNA expression of MCP-1 receptor CCR2, as quantified by qPCR in the heart and liver. FIG. 12B is a graph showing the mRNA expression of FKN receptor CX3CR1, as quantified by qPCR in the heart and liver. […] For the results depicted in FIGS. 12C and 12D, mice (3/group) were injected with vehicle (Veh) or multiple doses of IV sPDNF (25 μg per injection) at 0, 3 and 24 hr, and sacrificed 24 hr after the last injection. FIG. 12C is a graph showing mRNA expression of CCR2, as quantified by qPCR in the liver, colon and heart (ventricles and atria). FIG. 12D is a graph showing mRNA expression of CX3CR1, as quantified by qPCR in the liver, colon and heart (ventricles and atria). Notice a statistically significant upregulation of MCP-1 and FKN receptors in the heart and liver 48-h after the start of three doses of IV sPDNF spaced within a 24 h span; *P<0.05, and ** P<0.01
One of the functions of MCP-1 and FKN is to attract cells expressing their receptors (CCR2 and CX3CR1, respectively) to tissue sites. […] Thus, sPDNF-induced MCP-1 and FKN promoted migration of cells bearing CCR2 and CX3CR1 receptors.
RNA was isolated from Trizol lysates of cell monolayers or liquid nitrogen snap frozen tissue samples dissociated by a Tissue-Tearor mechanical homogenizer (Biospec Products, Inc.). cDNA was synthesized using the Quantitect Reverse Transcription kit (Qiagen) according to manufacturer's instructions. Chemokine and chemokine receptor transcripts were amplified using specific primers and normalized to HPRT using SYBR Green (Qiagen), and, if needed, expressed relative to control-unstimulated cells. The following primers were used: […]
sPDNF was diluted in sterile endotoxin-free PBS (200 μl) and injected via the tail vein into 6-8 week old female C57BL/6 mice. Mice receiving single IV injections of 150 μg sPDNF per mouse were sacrificed at 3, 6, 9, and 12 hr post-injection, or various doses of sPDNF (100 ng-150 μg) and sacrificed 3 hr post-injection. Mice receiving multiple injections of sPDNF or PBS vehicle control (0, 3, and 24 hr, 100 μg per injection) were sacrificed 24 hr after the last injection (i.e., 48 hr after the first injection). Mice were perfused with PBS and organs harvested as described above.

[2] = IV, naive mice; cited from earlier work
[3] = IV at 0, 3 and 24 hr, measured 24 hr after the last injection

Chain of TrkB (Q16620 32-822, species assumed): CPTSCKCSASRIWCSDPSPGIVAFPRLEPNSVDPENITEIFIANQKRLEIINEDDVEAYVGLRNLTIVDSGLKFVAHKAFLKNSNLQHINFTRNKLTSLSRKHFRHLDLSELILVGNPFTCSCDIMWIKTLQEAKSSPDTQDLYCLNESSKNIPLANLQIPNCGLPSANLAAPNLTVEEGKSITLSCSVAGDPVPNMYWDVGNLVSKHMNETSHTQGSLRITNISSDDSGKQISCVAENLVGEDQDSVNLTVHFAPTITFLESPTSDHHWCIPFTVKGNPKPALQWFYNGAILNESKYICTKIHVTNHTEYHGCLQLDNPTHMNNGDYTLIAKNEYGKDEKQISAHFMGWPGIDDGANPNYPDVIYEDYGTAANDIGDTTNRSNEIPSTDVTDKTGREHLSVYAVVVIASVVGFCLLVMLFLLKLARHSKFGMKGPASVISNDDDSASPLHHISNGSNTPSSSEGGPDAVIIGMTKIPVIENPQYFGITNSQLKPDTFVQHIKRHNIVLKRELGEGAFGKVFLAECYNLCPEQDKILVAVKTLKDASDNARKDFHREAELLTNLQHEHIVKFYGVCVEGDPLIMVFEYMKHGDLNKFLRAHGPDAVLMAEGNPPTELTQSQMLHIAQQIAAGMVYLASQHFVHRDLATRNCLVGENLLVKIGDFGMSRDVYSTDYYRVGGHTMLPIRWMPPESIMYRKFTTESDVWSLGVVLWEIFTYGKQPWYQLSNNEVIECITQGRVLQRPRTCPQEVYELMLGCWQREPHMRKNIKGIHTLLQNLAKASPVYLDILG

B1: sPDNF: N-terminal short-form of T cruzi PDNF that contains Trk-binding sites, recombinant; amino acids 1-588 of SEQ ID NO: 2; JR-100 is the commercial name (protein, listed as Trypanosoma cruzi)
chain: MGKTVVVASRMFWLMFFVPLLLAICPSEPAYALAPGSSRVELFKRKNSTVPFEDKAGKVTERVVHSFRLPALVNVDGVMVAIADARYDTSNDNSLIDTVAKYSVDDGETWETQIAIKNSRVSSVSRVVDPTVIVKGNKLYVLVGSYYSSRSYWSSHGDARDWDILLAVGEVTKSTAGGKITASIKWGSPVSLKKFFPAEMEGMHTNQFLGGAGVAIVASNGNLVYPVQVTNKKKQVFSKIFYSEDDGKTWKFGKGRSDFGCSEPVALEWEGKLIINTRVDWKRRLVYESSDMEKPWVEAVGTVSRVWGPSPKSNQPGSQSSFTAVTIEGMRVMLFTHPLNFKGRWLRDRLNLWLTDNQRIYNVGQVSIGDENSAYSSVLYKDDKLYCLHEINTDEVYSLVFARLVGELRIIKSVLRSWKNWDSHLSSICTPADPAASSSESGCGPAVTTVGLVGFLSGNASQNVWEDAYRCVNASTANAERVRNGLKFAGVGGGALWPVSQQGQNQRYRFANHAFTLVASVTIHEAPRAASPLLGASLDSSGGKKLLGLSYDEKHQWQPIYGSTPVTPTGSWETGKRYHLVLTMANKI
recognition of TrkB (TrkB): not recognized | FKN transcripts (cardiac fibroblasts): increase | MCP-1 transcripts (cardiac fibroblasts): increase | CCR2 in the liver and heart (ventricle and atrium) [1, 3]: significant increase | CX3CR1 in the liver and heart (ventricle and atrium) [1, 3]: significant increase | CCR2 transcripts in cardiac and hepatic tissues ([1]; single IV dose (150 μg)): did not increase | CX3CR1 transcripts in cardiac and hepatic tissues ([1]; single IV dose (150 μg)): did not increase | half-life in the blood [2]: ~15 min | time of peak in the myocardium post-injection [2]: ~15 min
